Substitutions are numbered along the chain they refer to. Numbers in names are those of the source. Entries after “also recorded” stand apart in the source; their conditions may differ.
B1: SPC: P. alba MEA G491S L494P T536C (+) TEV; pDW112, SEQ ID NO: 91 (protein)
chain: MEARRSANYEPNSWDYDYLLSSDTDESIEVYKDKAKKLEAEVRREINNEKAEFLTLLELIDNVQRLGLGYRFESDIRGALDRFVSSGGFDAVTKTSLHGTALSFRLLRQHGFEVSQEAFSGFKDQNGNFLENLKEDIKAILSLYEASFLALEGENILDEAKVFAISHLKELSEEKIGKELAEQVNHALELPLHRRTQRLEAVWSIEAYRKKEDANQVLLELAILDYNMIQSVYQRDLRETSRWWRRVGLATKLHFARDRLIESFYWAVGVAFEPQYSDCRNSVAKMFSFVTIIDDIYDVYGTLDELELFTDAVERWDVNAINDLPDYMKLCFLALYNTINEIAYDNLKDKGENILPYLTKAWADLCNAFLQEAKWLYNKSTPTFDDYFGNAWKSSSGPLQLVFAYFAVVQNIKKEEIENLQKYHDTISRPSHIFRLCNDLASASAEIARGETANSVSCYMRTKGISEELATESVMNLIDETWKKMNKEKLSGSPFAKPFVETAINLARQSHCTYHNGDAHTSPDELTRKRVLSVICEPILPFERENLYFQGLEHHHHHH
modifications: TEV site
B2: wild type IspS: P. alba MEA (+) TEV isoprene synthase, MD09-163, strain MD09-167, SEQ ID NO: 63 (protein)
chain: B1 chain with S491G, P494L, C536T
modifications: TEV site

Tests used:
[1] = Specific activity measurement of purified isoprene synthase variants (4 mM DMAPP, 30 C, GC-MS headspace); type: biochemical; conditions: for S.A. / Variant S.A./WT S.A.: 50 mM NaCl, 50 mM Tris pH = 8, 30° C.; for Variant S.A./WT S.A.: ratio to WT
How it was run: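 Ni-affinity-purified, buffer-exchanged enzyme incubated with 4 mM DMAPP and 50 mM MgCl2 in 50 mM Tris, 50 mM NaCl, pH 8, for 15 min at 30 C in sealed vials; stopped with EDTA. Headspace isoprene quantified by GC-MS, in triplicate; protein concentration from A280 with calculated extinction coefficient.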

[2] = kcat, KM and Ki determination, rate vs [DMAPP], fit to uncompetitive substrate inhibition; type: biochemical; conditions: for Km / kcat / Ki: average of three trials ± one standard deviation; for kcat: in s^-1 (unit assumed); for Ki: uncompetitive substrate inhibition by DMAPP, read-out: KiDMAPP
Protocol: 10 uL of purified enzyme was incubated with DMAPP at concentrations ranging from 1.25 to 20 mM DMAPP in a buffer containing 50 mM Tris, 50 mM MgCl2 and 50 mM NaCl (pH=8) to a final volume of 100 uL for 15 min. at 30 C in gas tight 2 mL vials. Reactions were terminated with the addition of 100 uL of 250 mM EDTA, pH=8. Samples were analyzed by GC-MS to determine the concentration of isoprene in the headspace of the vials. Data were analyzed using Kaleidagraph and fit to following equation for uncompetitive substrate inhibition: rate/E=kcat*S/(KM+S*(1+S/Ki)). All kinetic assays were performed in triplicate.
Protein concentration was determined by measuring the absorbance of each protein solution at 280 nm on a Helwlett Pachard 8453 UV-Vis spectrophotometer and converting the absorbance to protein concentration using the extinction coefficient as determined on the Expasy website (Gasteiger E., Hoogland C., Gattiker A., Duvaud S., Wilkins M. R., Appel R. D., Bairoch A.; Protein Identification and Analysis Tools on the ExPASy Server; (In) John M. Walker (ed): The Proteomics Protocols Handbook, Humana Press (2005). pp. 571-607). The protein concentrations of isoprene synthase variants assayed for KM and kcat determination were verified by comparative gel electrophoresis of a dilution series of each protein (FIG. 61).

[3] = Differential scanning calorimetry, thermal midpoint (Tm); type: physicochemical
Protocol: Excessive heat capacity curves were measured using an ultrasensitive scanning high-throughput microcalorimeter, VP-Cap DSC (MicroCal, Inc., Northampton, Mass.). The standard procedure for Differential Scanning calorimetry (DSC) measurements and the theory of the technique is previously published (Freire, E. (1995) Differential Scanning calorimetry Methods. Mol. Biol. 41, 191-218). Approximately 500 μL of 0.5 mg/ml IspS (from strain MD09-167) or variant IspS-L494P (from strain DW399) and IspS-T536F (from strain DW363) (in the absence or presence of 5 mM sodium pyrophosphate) were scanned over a 30-100° C. temperature range. The same sample was then re-scanned to check the reversibility of the process. For IspS the thermal unfolding process was irreversible. The buffer used was 50 mM HEPES, 5 mM MgCl2, pH 7.4, with and without 5 mM sodium pyrophosphate. Sodium pyrophosphate was included for its ability to function as a substrate analog. A 200° C./hr scan rate was used to minimize any artifacts that may result from aggregation. The thermal midpoint (Tm) of the DSC curves was used as an indicator of the thermal stability. The thermal melting curves and the melting points for the wild type IspS and variants are shown in FIG. 56 (buffer only) and 57 (with 5 mM sodium pyrophosphate).

| Molecule | S.A. [1] [nmol/mg/min] | Variant S.A./WT S.A. [1] | specific activity compared to WT isoprene synthase, in words ([1]; 30 C, purified enzyme) | KM compared to WT isoprene synthase, in words ([2]; 1.25 to 20 mM DMAPP, 30 C) | rate profile vs [DMAPP] ([2]; 1.25 to 20 mM DMAPP, 30 C) | Km ([2]; 1.25 to 20 mM DMAPP, 30 C) [mM] | kcat ([2]; 1.25 to 20 mM DMAPP, 30 C) | Ki [2] [mM] | thermal melting point (Tm) ([3]; buffer alone (50 mM HEPES, 5 mM MgCl2, pH 7.4)) [°C] | thermal melting point (Tm) ([3]; in the presence of 5 mM sodium pyrophosphate) [°C] | reversibility of the thermal unfolding process ([3]; re-scan of the same sample) |
| --- | --- | --- | --- | --- | --- | --- | --- | --- | --- | --- | --- |
| B1 | 630 ± 40 | 1.3 | increased specific activity; also recorded: greater than the WT isoprene synthase but less than the β isoprene synthase variant | less than the KM of the WT | uncompetitive substrate inhibition by DMAPP | 3.5 ± 0.8 | 1.5 ± 0.4 | 25 ± 21 |  |  |  |
| B2 | 480 ± 20 | 1.0 |  |  | uncompetitive substrate inhibition by DMAPP | 7 ± 4 | 1.5 ± 0.6 | 16 ± 9 | 58.3 | 54.7 | irreversible |

— patent US9175313B2, “Three-dimensional structure of isoprene synthase and its use thereof for generating variants” (Danisco US Inc., priority 2009, dated 2015)
